Source: the RNAGym collection of RNA variant scans (doi:10.1021/acssynbio.7b00057)

B1: Pistol ribozyme (parent)
chain: GGGUCGUUGUUCCAUAAUCGCGUGGAUAUGGCACGCAAGUUUCUACCGGGCACCGUAAAUGUCCGACUGGAGCCGUUCGGGCGGCUAUAAACAGACCUCAGGCCCGAAGCGUGGCGGCACCUGCCGCCGGUGGUAAAAAAGAUCGGAAGAGCACACGUCU

Variants of: B1
Experiment: aptazyme ON/OFF ratio, guanine; higher = stronger switching; co-transcriptional cleavage with and without guanine

Variant | aptazyme ON/OFF ratio
U8A G9A U10G U11G C12A C13U | 1.3
U8A G9A U10G U11G C12A C13G | 1.27
U8A G9C U10C U11G C12A | 1.07
U8A G9C U10C U11G C12U | 1.08
U8A G9C U10C U11G C12G | 1.12
U8A G9C U10G C12A C13A | 1.19
U8A G9C U10G C12A C13U | 1.37
U8A G9C U10G C12A C13G | 1.03
U8A G9A U11C C12A C13U | 1.2
U8A G9A U11C C12A C13A | 1.07
U8A G9A U11C C12A C13G | 1.23
U8A G9C U10A U11G C12U C13G | 1.18
U8A G9C U10A U11G C12U C13A | 1.17
U8A G9C U10A U11G C12U C13U | 1.14
U8A G9C U10G C12G C13A | 1.23
U8A G9C U10G C12G C13G | 1.15
U8A G9C U10G C12G C13U | 1.2
U8A G9C U10A U11A C12G C13G | 1.23
U8A G9C U10A U11A C12G C13A | 1.14
U8A G9C U10A U11A C12G C13U | 1.3
U8A G9C U10A U11C C12A C13A | 1.22

Variant | aptazyme ON/OFF ratio
U8A G9C U10A U11C C12A C13U | 1.24
U8A G9C U10A U11C C12A C13G | 1.12
U8A G9A U11A C12U | 1.05
U8A G9A U11A C12G | 1.31
U8A G9A U11A C12A | 1.08
U8A G9C U10A C12A C13G | 1.14
U8A G9C U10A C12A C13A | 1.22
U8A G9C U10A C12A C13U | 1.19
U8A G9A U10C U11G C12A | 1.03
U8A G9A U10C U11G C12U | 1.26
U8A G9A U10C U11G C12G | 1.38
U8A G9A U10C U11A C12G C13A | 1.19
U8A G9A U10C U11A C12G C13U | 1.22
U8A G9A U10C U11A C12G C13G | 1.12
U8A G9A U11G C12G | 1.08
U8A G9A U11G C12A | 1.08
U8A G9A U11G C12U | 1.35
U8A G9A U10G U11G C12U C13U | 1.2
U8A G9A U10G U11G C12U C13A | 1.36
U8A G9A U10G U11G C12U C13G | 1.26
U8A G9C U10C C12G C13A | 1.07

Variant | aptazyme ON/OFF ratio
U8A G9C U10C C12G C13G | 1.03
U8A G9C U10C C12G C13U | 1.05
U8A G9C U10C U11C C12G C13G | 1.05
U8A G9C U10C U11C C12G C13U | 1.04
U8A G9C U10C U11C C12G C13A | 1.01
U8A G9C U10A C12U C13A | 1.09
U8A G9C U10A C12U C13G | 1.04
U8A G9C U10A C12U C13U | 0.997
U8A G9A U10C U11G C12G C13A | 1.28
U8A G9A U10C U11G C12G C13G | 1.24
U8A G9A U10C U11G C12G C13U | 1.17
U8A G9A U11C C12U C13G | 1.2
U8A G9A U11C C12U C13A | 1.23
U8A G9A U11C C12U C13U | 1.21
U8A G9A U10G C12U C13U | 1.41
U8A G9A U10G C12U C13G | 1.17
U8A G9A U10G C12U C13A | 1.34
U8A G9A U10G U11A C12G C13G | 1.19
U8A G9A U10G U11A C12G C13U | 1.12
U8A G9A U10G U11A C12G C13A | 1.24
U8A G9C C13A | 1.11

Variant | aptazyme ON/OFF ratio
U8A G9C C13U | 1.17
U8A G9C C13G | 1.04
U8A G9C U10G C13A | 1.38
U8A G9C U10G C13U | 1.31
U8A G9C U10G C13G | 1.17
U8A G9A U10G U11C C12A C13A | 1.12
U8A G9A U10G U11C C12A C13U | 1.16
U8A G9A U10G U11C C12A C13G | 1.08
U8A G9A U10G U11G C13A | 1.17
U8A G9A U10G U11G C13U | 1.05
U8A G9A U10G U11G C13G | 1.12
U8A G9C U10C C12U C13A | 1.04
U8A G9C U10C C12U C13G | 1.03
U8A G9C U10C C12U C13U | 1.03
U8A G9C U10A | 1.38
U8A G9C U10C | 1.35
U8A G9C U10G | 1.54
U8A G9A U11G C12A C13U | 1.09
U8A G9A U11G C12A C13G | 1.21
U8A G9A U11G C12A C13A | 1.14
U8A G9C U10G U11A C12U | 1.06
